Bridges are numbered along the chain shown (N, C = ends).
Assays:
[1] = target: T1, Recombinant HIV-1 BaL gp120 (HIV-1 (BaL)); assay: SPR (Biacore 2000), gp120 BaL immobilized on chip, peptide in flow, 1:1 fit
T1 construct: domain: gp120; also called gp120(BaL); gp120 BaL

[2] = target: T2, Glycosylated HIV-1 gp120 (LAV) envelope glycoprotein (HIV-1 (LAV), UniProt P03377 33-516, limits assumed, glycosylated); assay: SPR (Biacore 2000), gp120 LAV immobilized on CM5 chip, peptide in flow, 1:1 fit
T2 construct: domain: gp120; Bought
Protocol: Surface plasmon resonance (SPR) experiments were done with a Biacore 2000 system (Biacore, Inc., Piscataway, N.J.). The running buffer (pH 7.4) contained 10 mM HEPES, 150 mM NaCl, 3 mM EDTA and 0.005% polysorbate 20. The immobilized proteins (gp120-LAV and CD4) were dissolved at 20 μg/ml in 10 mM sodium acetate, pH 5.0 and immobilized on a Biacore CM5 sensor chip using the amine coupling method. The chip was activated by mixing 400 mM EDC (N-ethyl-N-(3-dimethylaminopropyl)-carbodiimide hydrochloride) and 100 mM N-hydroxysuccinimide. An immobilization level of 6000 response units (RU) was attained for each bound protein. Residual reactive groups on the chip surface were blocked using 1.0 Methanolamine/HCl, pH 8.5.
In those experiments, biosensor chips containing immobilized gp120 or CD4 were perfused with a 1 μg/ml solution of the peptides, and binding was measured by surface plasmon resonance.

[3] = target: T3, Recombinant human soluble CD4 (full-length 45 kDa glycosylated ectodomain) (human, UniProt P01730 26-396); assay: SPR (Biacore 2000), soluble CD4 immobilized on CM5 chip, peptide in flow, 1:1 fit
T3 construct: extracellular domain; Immobilized on a CM5 chip by amine coupling

B1: Retrocyclin-1 (RC-100) (peptide)
peptide: cyclo(GICRCICGRGICRCICGR)
modifications: disulfide 7-12, 5-14, 3-16
SMILES: CC[C@H](C)[C@@H]1NC(=O)CNC(=O)[C@H](CCCNC(=N)N)NC(=O)CNC(=O)[C@@H]2CSSC[C@H](NC1=O)C(=O)N[C@@H](CCCNC(=N)N)C(=O)N[C@H]1CSSC[C@H](NC(=O)[C@H](CCCNC(=N)N)NC(=O)[C@@H]3CSSC[C@H](NC(=O)[C@H]([C@@H](C)CC)NC1=O)C(=O)NCC(=O)N[C@@H](CCCNC(=N)N)C(=O)NCC(=O)N[C@@H]([C@@H](C)CC)C(=O)N3)C(=O)N[C@@H]([C@@H](C)CC)C(=O)N2
notes: Made by solid phase synthesis, then oxidized and cyclized; also called Retro1
- Kd [1]: 29.2 nM
- Kd [2]: 35.4 nM
- Kd [3]: 31 nM

B2: RC-101 (R9K-Retrocyclin) (peptide)
peptide: cyclo(GICRCICGKGICRCICGR)
modifications: disulfide (positions not given here)
notes: Synthetic cyclic congener of retrocyclin; It was unlabelled in the SPR experiments
- Kd [1]: 20.5 nM
- Kd [2]: 31.2 nM
- Kd [3]: 28.6 nM
